What was measured:
[1] = target: DH475 Fab, heavy chain W104A (human); assay: BLI; BLItz; Fab (0.2 mg/mL) immobilised on Anti-Human Fab-CH1 2nd Generation (FAB2G) biosensors, Env constructs titrated; 2.5 mM Tris pH 7.5, 350 mM NaCl; global fit
[2] = target: DH475 Fab, heavy chain D77A (human); assay: as above
[3] = target: DH475 Fab, heavy chain N31A (human); assay: as above
[4] = target: DH475 Fab, heavy chain N30A (human); assay: as above
[5] = target: CH848 TF DS SOSIP Env trimer (HIV-1 (donor CH848, transmitted/founder)); assay: ITC; 157 uM DH272.2 injected into a cell with 7.59 uM CH848 TF DS SOSIP Env; single site model

DH475 Fab, heavy chain N30A (human), sequence (heavy, as listed by the source, chain 1 of 2): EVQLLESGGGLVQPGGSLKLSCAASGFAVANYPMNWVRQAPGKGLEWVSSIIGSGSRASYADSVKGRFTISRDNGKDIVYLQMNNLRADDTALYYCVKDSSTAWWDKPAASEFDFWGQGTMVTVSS
DH475 Fab, heavy chain N30A (human), sequence (light, as listed by the source, chain 2 of 2): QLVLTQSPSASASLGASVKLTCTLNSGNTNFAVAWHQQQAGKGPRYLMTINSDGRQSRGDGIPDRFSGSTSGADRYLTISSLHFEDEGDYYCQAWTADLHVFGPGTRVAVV
DH475 Fab, heavy chain W104A (human), sequence (heavy, as listed by the source, chain 1 of 2): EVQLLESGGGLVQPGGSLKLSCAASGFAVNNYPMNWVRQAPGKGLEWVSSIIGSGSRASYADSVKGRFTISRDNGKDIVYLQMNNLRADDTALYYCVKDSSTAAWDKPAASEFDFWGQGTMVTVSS
DH475 Fab, heavy chain W104A (human), sequence (light, as listed by the source, chain 2 of 2): as the sequence (light, as listed by the source, chain 2 of 2) above
DH475 Fab, heavy chain D77A (human), sequence (heavy, as listed by the source, chain 1 of 2): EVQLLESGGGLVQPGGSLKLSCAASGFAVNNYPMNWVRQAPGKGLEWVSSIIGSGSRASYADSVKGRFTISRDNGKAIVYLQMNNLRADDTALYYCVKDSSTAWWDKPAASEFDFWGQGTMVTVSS
DH475 Fab, heavy chain D77A (human), sequence (light, as listed by the source, chain 2 of 2): as the sequence (light, as listed by the source, chain 2 of 2) above
DH475 Fab, heavy chain N31A (human), sequence (heavy, as listed by the source, chain 1 of 2): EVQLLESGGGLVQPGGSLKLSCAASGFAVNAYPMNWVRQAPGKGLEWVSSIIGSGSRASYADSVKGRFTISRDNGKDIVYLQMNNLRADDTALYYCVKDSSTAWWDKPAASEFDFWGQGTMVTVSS
DH475 Fab, heavy chain N31A (human), sequence (light, as listed by the source, chain 2 of 2): as the sequence (light, as listed by the source, chain 2 of 2) above

Molecule | Kd [1] | Kd [2] | Kd [3] | Kd [4] | stoichiometry N [5]
CH848 transmitted/founder (TF) gp120 core (domain or fragment) | > 50 µM | > 50 µM | > 50 µM | > 50 µM | 
DH272.2 Fab (Fab, V domains shown) VH: QVQLVQSGAEVKKPGASVKVSCQASGYRVSDHFVNWMRQAPGQRLEWIGWFNPDSRDTHYADKFKGRVTSTKIGNTVYMQLSSLRSDDTAVYYCARERYDFHSGLEGSFDFWGQGTLVTV VL: DIVMTQSPLSLPVTLGQPASISCRSSQSLVHNYGNTYLNWFQQRPGQSPRRLIYKVSGRDSGVPDRFSGGGSGTDFTLKISSVEAEDVGVYYCMQGTHWPRTFGQGTKLEIN |  |  |  |  | 3

Reference: paper PMC9548623
